Experimental findings from the supplement of paper PMC10567573 are described below.

First the molecules themselves.
B1: TBX5 (parent)
chain: YQNHKITQLKIENNPFAKGFRGSD
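Further: lentivirally expressed fusions sorted by FACS into six bins by GFP to DsRed ratio, PSI derived from sequencing read proportions per bin multiplied by bin number.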

The variants in the series derive from B1. Nature of the series: protein stability index of a GFP-peptide fusion (GPS, HEK-293T) (PSI 1-6); higher = more stable. The note with it: c terminus: a fixed tail appended.
With YQNHKITQLKIENNQFAKGFRGSD [P15Q], the protein stability index is 2.32.
Then YQNHKITQLKIENNTFAKGFRGSD [P15T], with 2.82; and YQNHKITQLKIENNHFAKGFRGSD [P15H], with 2.35; and YQNHKITQLKIENNLFAKGFRGSD [P15L], with 2.08.
Turning to YQNHKITQLKIENNEFAKGFRGSD [P15E], the protein stability index came to 2.69.
As for YQNHKITQLKIENNCFAKGFRGSD [P15C], the protein stability index amounted to 2.34.
With YQNHKITQLKIENNRFAKGFRGSD [P15R], the protein stability index was 2.35.
In the case of YQNHKITQLKIENNYFAKGFRGSD [P15Y], the protein stability index was determined as 2.34.
For YQNHKITQLKIENNDFAKGFRGSD [P15D], the protein stability index is 3.34.
As for YQNHKITQLKIENNIFAKGFRGSD [P15I], the protein stability index is 2.04.
On to YQNHKITQLKIENNMFAKGFRGSD [P15M], for which the protein stability index was found to be 2.65.
Then YQNHKITQLKIENNNFAKGFRGSD [P15N], with 2.7.
Then YQNHKITQLKIENNKFAKGFRGSD [P15K], with 2.33.
In the case of YQNHKITQLKIENNAFAKGFRGSD [P15A], the protein stability index was 2.52.
As to YQNHKITQLKIENNFFAKGFRGSD [P15F], the protein stability index is 1.96.
YQNHKITQLKIENNSFAKGFRGSD [P15S]: the protein stability index is 2.7.
Then YQNHKITQLKIENNWFAKGFRGSD [P15W], with 1.87; and YQNHKITQLKIENNVFAKGFRGSD [P15V], with 2.38; and YQNHKITQLKIENNGFAKGFRGSD [P15G], with 2.37.
Take YQNHKITQLKIENNPFAPGFRGSD [K18P]: the protein stability index was 2.54.
As for YQNHKITQLKIENNPFAEGFRGSD [K18E], the protein stability index is 3.08.
In the case of YQNHKITQLKIENNPFAVGFRGSD [K18V], the protein stability index came to 2.07.
With YQNHKITQLKIENNPFACGFRGSD [K18C], the protein stability index was 1.36.
The value for YQNHKITQLKIENNPFAAGFRGSD [K18A] was 2.24.
The value for YQNHKITQLKIENNPFAWGFRGSD [K18W] was 1.63.
With YQNHKITQLKIENNPFASGFRGSD [K18S], the protein stability index turned out to be 2.31.
Then YQNHKITQLKIENNPFAHGFRGSD [K18H], with 2.09; and YQNHKITQLKIENNPFADGFRGSD [K18D], with 2.16.
The value for YQNHKITQLKIENNPFAYGFRGSD [K18Y] was 2.12; that for YQNHKITQLKIENNPFARGFRGSD [K18R] was 2.77; that for YQNHKITQLKIENNPFAQGFRGSD [K18Q] was 2.37.
As to YQNHKITQLKIENNPFALGFRGSD [K18L], the protein stability index was determined as 2.06.
Then YQNHKITQLKIENNPFATGFRGSD [K18T], with 1.67; and YQNHKITQLKIENNPFANGFRGSD [K18N], with 2.23.
For the variant YQNHKITQLKIENNPFAFGFRGSD [K18F], the protein stability index was 1.7.
In the case of YQNHKITQLKIENNPFAMGFRGSD [K18M], the protein stability index is 2.06.
The value for YQNHKITQLKIENNPFAGGFRGSD [K18G] was 1.81; that for YQNHKITQLKIENNPFAIGFRGSD [K18I] was 2.49.
YQNHKITQLKICNNPFAKGFRGSD [E12C]: the protein stability index is 1.73.
On to YQNHKITQLKIINNPFAKGFRGSD [E12I], for which the protein stability index was found to be 1.81.
With YQNHKITQLKIRNNPFAKGFRGSD [E12R], the protein stability index was found to be 1.98.
Then YQNHKITQLKIQNNPFAKGFRGSD [E12Q], with 2.22; and YQNHKITQLKIHNNPFAKGFRGSD [E12H], with 2.3; and YQNHKITQLKIYNNPFAKGFRGSD [E12Y], with 1.69.
Turning to YQNHKITQLKIWNNPFAKGFRGSD [E12W], the protein stability index was 1.49.
Then YQNHKITQLKITNNPFAKGFRGSD [E12T], with 2.75; and YQNHKITQLKIKNNPFAKGFRGSD [E12K], with 1.84; and YQNHKITQLKIDNNPFAKGFRGSD [E12D], with 2.94.
As to YQNHKITQLKIMNNPFAKGFRGSD [E12M], the protein stability index was found to be 2.35.
Take YQNHKITQLKIGNNPFAKGFRGSD [E12G]: the protein stability index is 2.01.
Consider YQNHKITQLKIANNPFAKGFRGSD [E12A], for which the protein stability index turned out to be 2.32.
For the variant YQNHKITQLKINNNPFAKGFRGSD [E12N], the protein stability index was determined as 2.51.
YQNHKITQLKIVNNPFAKGFRGSD [E12V]: the protein stability index came out at 1.91.
Then YQNHKITQLKILNNPFAKGFRGSD [E12L], with 2.17; and YQNHKITQLKIPNNPFAKGFRGSD [E12P], with 2.63; and YQNHKITQLKISNNPFAKGFRGSD [E12S], with 2.11.
As to YQNHKITQLKIFNNPFAKGFRGSD [E12F], the protein stability index is 1.7.
For the variant YQNHKITQLKDENNPFAKGFRGSD [I11D], the protein stability index was 3.27.
In the case of YQNHKITQLKTENNPFAKGFRGSD [I11T], the protein stability index was found to be 2.71.
YQNHKITQLKFENNPFAKGFRGSD [I11F]: the protein stability index was 2.25.
The value for YQNHKITQLKLENNPFAKGFRGSD [I11L] was 2.62; that for YQNHKITQLKPENNPFAKGFRGSD [I11P] was 2.71.
As to YQNHKITQLKGENNPFAKGFRGSD [I11G], the protein stability index was found to be 2.47.
YQNHKITQLKWENNPFAKGFRGSD [I11W]: the protein stability index was determined as 2.34.
The value for YQNHKITQLKRENNPFAKGFRGSD [I11R] was 2.71; that for YQNHKITQLKMENNPFAKGFRGSD [I11M] was 2.64; that for YQNHKITQLKYENNPFAKGFRGSD [I11Y] was 2.83.
Take YQNHKITQLKSENNPFAKGFRGSD [I11S]: the protein stability index came out at 2.96.
For YQNHKITQLKEENNPFAKGFRGSD [I11E], the protein stability index amounted to 3.23.
Turning to YQNHKITQLKQENNPFAKGFRGSD [I11Q], the protein stability index stood at 2.58.
Consider YQNHKITQLKNENNPFAKGFRGSD [I11N], for which the protein stability index is 2.59.
Turning to YQNHKITQLKHENNPFAKGFRGSD [I11H], the protein stability index is 2.33.
Turning to YQNHKITQLKVENNPFAKGFRGSD [I11V], the protein stability index was determined as 2.58.
The value for YQNHKITQLKCENNPFAKGFRGSD [I11C] was 2.48; that for YQNHKITQLKKENNPFAKGFRGSD [I11K] was 2.52.
YQNHKITQLKAENNPFAKGFRGSD [I11A]: the protein stability index was 2.36.
As for YQNHKITQLKIENNPFAKEFRGSD [G19E], the protein stability index was 3.99.
With YQNHKITQLKIENNPFAKAFRGSD [G19A], the protein stability index came out at 2.75.
Consider YQNHKITQLKIENNPFAKHFRGSD [G19H], for which the protein stability index worked out at 2.55.
Regarding YQNHKITQLKIENNPFAKIFRGSD [G19I], the protein stability index is 1.85.
YQNHKITQLKIENNPFAKCFRGSD [G19C]: the protein stability index is 1.74.
Take YQNHKITQLKIENNPFAKDFRGSD [G19D]: the protein stability index was determined as 2.7.
Then YQNHKITQLKIENNPFAKFFRGSD [G19F], with 2.16; and YQNHKITQLKIENPPFAKGFRGSD [N14P], with 2.52.
Then YQNHKITQLKIENCPFAKGFRGSD [N14C], with 1.58; and YQNHKITQLKIENYPFAKGFRGSD [N14Y], with 1.89.
Then YQNHKITQLKIENIPFAKGFRGSD [N14I], with 2.41; and YQNHKITQLKIENTPFAKGFRGSD [N14T], with 2.61.
With YQNHKITQLKIENWPFAKGFRGSD [N14W], the protein stability index was 1.59.
With YQNHKITQLKIENMPFAKGFRGSD [N14M], the protein stability index turned out to be 2.05.
The value for YQNHKITQLKIENQPFAKGFRGSD [N14Q] was 2.94.
The value for YQNHKITQLKIENEPFAKGFRGSD [N14E] was 2.95; that for YQNHKITQLKIENLPFAKGFRGSD [N14L] was 2.52; that for YQNHKITQLKIENVPFAKGFRGSD [N14V] was 2.27.
